Results on one molecule are retold here after patent US20120135912A1 (PERSEID THERAPEUTICS, published 2012).

Experiment [1] addresses T1, human VLA4-Fc (alpha4-Fc/beta1-Fc heterodimer) (human).
T1 construct: Soluble heterodimer from CHO cells, Protein A purified; also called VLA-Fc
Put plainly: ELISA, VLA4-Fc coated, 1 mM MnCl2; from EC50 values; ELISA, VLA4-Fc coated on plate, 1 mM MnCl2 (activated VLA4); fold relative to human 2D-VCAM-1. The procedure: The relative binding affinities of various 2D-VCAM-1 variants to immobilized VLA4-Fc (α4-β1-Fc) heterodimer, relative to a control protein (e.g., Q38L-2D-VCAM-1 or to human 2D-VCAM-1), were deter using a solid-phase ELISA assay. […] The dilution series was transferred into the ELISA plate which was incubated at room temperature for 2 h and subsequently washed with TBS-T. Bound 2D-VCAM protein was detected by incubation with 0.5 ug/ml of biotinylated anti-human VCAM antibody (R&D Systems, Catalog No. BAF809) in TBS-TMC for 1 h at room temperature followed by a TBS-MT (TBS plus 1 mM MnCl2 and 0.02% TWEEN-20) wash and subsequent incubation with 1:2000 dilution of streptavidin-HRP (BD Biosciences, Catalog No. 554066) in TBS-TMC for 30 min at room temperature. […] Fold-improvement in binding was calculated relative to a control protein (e.g., Q38L-2D-VCAM-1 or human 2D-VCAM-1) assayed on the same plate.
A general note: In an ELISA, binding on a coated surface is turned into a signal by an enzyme label.

Experiment [2] deals with T1, human VLA4-Fc (alpha4-Fc/beta1-Fc …). Put plainly: SPR (BIACORE), retest with new polypeptide preparations and new VLA4-Fc; retested with new polypeptide preparations and new VLA-Fc ligand (Table 5B). The procedure: (§1) The kinetic 2D-VCAM-1 assay measures binding kinetics of a dimeric ligand (e.g., VLA-Fc fusion protein or LPAM-1-Fc fusion protein) coated to sensor chips and monomeric analyte (e.g., 2D-VCAM-1 variant polypeptides) in the mobile phase. Goat anti-human IgG antibody (Jackson ImmunoResearch, Catalog No. 105-005-098) was immobilized on CM-5 sensor chips (GE Healthcare, Catalog No. BR-1000-14) according to the manufacturer's protocol. Antibody was diluted to 30 μg/ml in immobilization buffer (10 mM sodium acetate, pH 5.0 (GE Healthcare, Catalog No. BR-1003-51)). […] Un-reacted sites were quenched with 35 μl of 1 M ethanolamine-HCl pH 8.5 (GE Healthcare, Catalog No. BR-1000-50). This procedure typically yielded 15,000 response units (RU) of coupled antibody. VLA4-Fc or LPAM-1-Fc, prepared as described in Examples 3 and 4, respectively, were bound to antibody-coated sensor chips by injection of 20 μl of ligand solution (20 μg/ml protein in HBS-P-Mn buffer at a flow rate of 10 μl/min). Ligand capture levels were typically 200-300 RU. […] Typically, 8 dilutions of 2D-VCAM-1 variant polypeptides ranging from 150 nM to 0.069 nM were analyzed against a blank reference (HBS-P-Mn buffer alone).

Experiment [3] has the same target. Put plainly: SPR (BIACORE), VLA4-Fc captured by anti-human IgG, 1 mM MnCl2, 1:1 Langmuir; standard BIACORE assay, first preparation (Table 5A); KD ratio relative to human 2D-VCAM-1. The procedure: as §1
In general terms: In SPR one partner is held on a chip, and binding of the other changes the refractive index at the surface.

T1 sequence (chain, as listed by the source limits assumed, form in doubt, chain 1 of 2): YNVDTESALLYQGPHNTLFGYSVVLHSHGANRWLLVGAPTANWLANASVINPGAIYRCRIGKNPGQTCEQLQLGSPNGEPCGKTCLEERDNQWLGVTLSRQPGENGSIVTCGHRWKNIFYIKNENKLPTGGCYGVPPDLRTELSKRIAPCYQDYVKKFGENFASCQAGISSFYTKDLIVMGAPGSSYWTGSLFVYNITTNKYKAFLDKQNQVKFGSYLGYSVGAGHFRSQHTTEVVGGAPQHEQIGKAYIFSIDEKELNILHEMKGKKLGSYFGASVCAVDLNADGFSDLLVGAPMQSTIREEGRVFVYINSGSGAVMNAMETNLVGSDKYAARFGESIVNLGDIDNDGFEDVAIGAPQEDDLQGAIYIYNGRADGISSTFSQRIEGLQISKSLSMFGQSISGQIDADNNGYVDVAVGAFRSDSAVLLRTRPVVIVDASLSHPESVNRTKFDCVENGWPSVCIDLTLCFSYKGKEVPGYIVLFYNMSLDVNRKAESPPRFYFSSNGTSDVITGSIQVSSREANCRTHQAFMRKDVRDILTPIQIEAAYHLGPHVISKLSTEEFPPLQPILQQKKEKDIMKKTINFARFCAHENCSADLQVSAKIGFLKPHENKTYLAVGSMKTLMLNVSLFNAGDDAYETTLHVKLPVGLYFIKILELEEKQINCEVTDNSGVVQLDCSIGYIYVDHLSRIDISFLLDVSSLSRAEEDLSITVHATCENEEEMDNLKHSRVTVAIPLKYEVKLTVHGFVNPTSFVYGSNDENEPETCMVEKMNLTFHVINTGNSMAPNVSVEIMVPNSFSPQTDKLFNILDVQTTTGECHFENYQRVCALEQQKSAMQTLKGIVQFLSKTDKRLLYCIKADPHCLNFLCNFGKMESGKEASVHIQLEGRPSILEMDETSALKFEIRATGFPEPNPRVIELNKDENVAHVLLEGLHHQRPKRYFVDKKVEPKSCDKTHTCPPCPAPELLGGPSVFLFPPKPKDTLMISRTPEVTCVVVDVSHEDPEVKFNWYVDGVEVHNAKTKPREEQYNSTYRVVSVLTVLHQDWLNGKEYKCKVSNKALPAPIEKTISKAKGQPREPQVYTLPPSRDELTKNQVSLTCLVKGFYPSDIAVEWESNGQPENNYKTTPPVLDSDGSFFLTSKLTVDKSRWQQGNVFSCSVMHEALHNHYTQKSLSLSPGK
T1 sequence (chain, as listed by the source limits assumed, form in doubt, chain 2 of 2): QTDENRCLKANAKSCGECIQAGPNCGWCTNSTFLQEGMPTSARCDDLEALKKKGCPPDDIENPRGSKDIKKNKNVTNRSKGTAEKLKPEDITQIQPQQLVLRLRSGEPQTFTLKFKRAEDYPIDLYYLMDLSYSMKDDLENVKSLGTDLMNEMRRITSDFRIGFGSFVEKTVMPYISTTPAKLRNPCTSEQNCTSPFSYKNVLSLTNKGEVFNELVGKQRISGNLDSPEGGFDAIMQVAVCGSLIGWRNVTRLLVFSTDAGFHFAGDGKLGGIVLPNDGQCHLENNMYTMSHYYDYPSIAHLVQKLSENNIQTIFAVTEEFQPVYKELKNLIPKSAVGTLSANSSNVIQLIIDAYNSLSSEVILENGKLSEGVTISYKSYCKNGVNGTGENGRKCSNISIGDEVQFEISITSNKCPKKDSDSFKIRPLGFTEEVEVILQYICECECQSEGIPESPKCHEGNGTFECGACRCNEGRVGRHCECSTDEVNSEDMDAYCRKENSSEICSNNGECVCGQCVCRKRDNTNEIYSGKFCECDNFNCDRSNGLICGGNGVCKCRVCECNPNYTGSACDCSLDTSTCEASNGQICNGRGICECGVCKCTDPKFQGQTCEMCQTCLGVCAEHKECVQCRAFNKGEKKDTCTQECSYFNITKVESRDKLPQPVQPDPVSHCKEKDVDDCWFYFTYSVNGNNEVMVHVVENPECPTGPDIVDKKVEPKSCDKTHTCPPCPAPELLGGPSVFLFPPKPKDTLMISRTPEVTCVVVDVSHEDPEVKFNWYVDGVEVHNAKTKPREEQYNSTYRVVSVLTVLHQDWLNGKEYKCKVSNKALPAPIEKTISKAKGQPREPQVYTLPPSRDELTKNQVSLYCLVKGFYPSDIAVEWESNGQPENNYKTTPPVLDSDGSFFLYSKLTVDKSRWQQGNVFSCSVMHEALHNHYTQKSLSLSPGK

B1: 2D-VCAM-1 variant Clone 146 (ligand, not shown: small tags and cut ends)
chain: FKIETTPESRYLAQIGDSVSLTCSTTGCESPLFFWRPLLDSPLNGKVTNEGTTSTLTMNPVSFGNEHSYLCTARCESRSLEKGIQVEIYSFPKDPEIHLSGPLEAGKPITVKCSVADVYPFDRLEIDLLKGDHLMKSQEFLEDADRKSLETKSLEVTFTPVIEDIGKVLVCRAKLHIDEMDSVPTVRQAVKELQVYISP
A word on the Kd: it is the free concentration of one partner at which half of the binding sites on the other are occupied at equilibrium, for simple one-to-one binding. A high value points to a looser complex. B1: the “fold-improvement in binding relative to human 2D-VCAM-1” value in experiment [1] turned out to be 298 fold. Binding in experiment [2] was put at a Kd of 0.018 nM. Further, the “binding affinity for VLA4-Fc relative to human 2D-VCAM-1” value in experiment [3] was 306 fold.
